The supplement of paper PMC9732359
± gives the uncertainty stated by the source.

Test: protein stability index of a GFP-peptide fusion (yeast GPS) (PSI 1-4); higher = more stable; sorted into four equal gates, so the index is relative within each strain
Settings: pdr5∆
Procedure, shortened: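 Plasmids in a pooled yeast library fused tiled 17-residue yeast protein peptides downstream of GFP and also expressed Cherry. Mid-log cultures grown without leucine were sorted into four equal gates by GFP/Cherry fluorescence ratio. Each gate's plasmids were PCR-amplified and Illumina-sequenced, and reads were matched to strains by barcodes. The protein stability index is derived by multiplying each gate's read frequency by its gate number and summing the results.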

FLKLANGGKFSKSNLIH [RGR1] and FLMGIFNSVVNLSRYPK [MTR3] are within error of each other in protein stability index: 2.55 ± 0.061 for the first, 2.5 ± 0.089 for the second.

Going from FLNTPNNNINENELFND [SSN2] to FLQRVRVWEYRQKNVIH [RPL15A], the protein stability index falls from 3.06 ± 0.05 to 1.72 ± 0.085.

Compared with FLSLLNLATKGMVKLNE [REC8], FLVLYDVKTAEEASQLI [NUT1] is higher in protein stability index: 1.59 ± 0.055 for the first, 1.93 ± 0.077 for the second.

Same assay, conditions: san1∆

Going from ENYDDTELRQLFQENDD [DSN1] to EPDLESQISKAEMEADS [SMC4], the protein stability index rises from 2.6 ± 0.096 to 3.43 ± 0.069.

First: EPDREKIKLLTQATSED [RPC19]
Second: EPELRVLSTEEILNIFK [RPO21]
The protein stability index of the first is lower: 2.73 ± 0.12 for the first, 3.51 ± 0.084 for the second.

EPIRFLPNQFPLKIHRT [SWI1] and EPLAIALSMGKSSAFVI [ARP7] are within error of each other in protein stability index: 1.59 ± 0.12 for the first, 1.67 ± 0.1 for the second.

EPNSAKKIRFLQLIIFL [RGR1] and EPPAGVALPPGSNYNPY [CYT1] are within error of each other in protein stability index: 2.89 ± 0.3 for the first, 2.83 ± 0.12 for the second.

Going from EQEDIIEKTESVDKKVD [SWI3] to EQLSPQDVLQMLGRAGR [BRR2], the protein stability index rises from 3.14 ± 0.041 to 3.48 ± 0.15.

First: EQQLFEIFAFGNIKDLP [CSN9]
Second: EQTTGGNNKDLKNTMQY [RPB4]
The protein stability index of the first is higher: 2.96 ± 0.035 for the first, 2.65 ± 0.17 for the second.

Going from EQWLRQFEVSDDEKNDK [SNF2] to ERGQKVKNVKNSDLEFN [ARP9], the protein stability index falls from 3.17 ± 0.053 to 2.17 ± 0.18.

First: ERIVVSYEYYNIKHKHT [SMC2]
Second: ERLAKVNEMNDQLAQEL [NNF1]
The protein stability index of the first is lower: 1.74 ± 0.11 for the first, 3.28 ± 0.12 for the second.

Going from ERNAAYQKEYETAERNI [RPL7A] to ERRVLLSAPLSKELRAQ [RPL26B], the protein stability index rises from 2.48 ± 0.095 to 2.89 ± 0.055.

First: ERSELLRLFNAPDSEYL [SNF2]
Second: ERSSKRLAKKPSMKKIK [SIR3]
The protein stability index of the first is lower: 2.87 ± 0.045 for the first, 3.06 ± 0.057 for the second.

Going from ESDETTTDNNNSGNSNS [RPT1] to ESEYREFESELKNVEET [ESC2], the protein stability index rises from 2.66 ± 0.22 to 3.2 ± 0.18.

Compared with ESINNVVDQLWSEISNE [RPN2], ESKDSIQDLIVKLKQQK [SMC3] is higher in protein stability index: 2.83 ± 0.096 for the first, 3.09 ± 0.14 for the second.

First: ESKMRQQEAKYRNNEPA [YDL088C/ASM4]
Second: ESLKKSPIFEVLSDDAK [ARP9]
The protein stability index of the first is lower: 2.84 ± 0.075 for the first, 3.06 ± 0.073 for the second.

Going from ESMDFLVLADAFDIELS [YCS4] to ESPNYCNALIHIKFSAG [SRB4], the protein stability index falls from 2.64 ± 0.055 to 1.93 ± 0.069.

First: ESQPKQTGTRRNSKLLN [MCD1]
Second: ESSNEAKKTIQNPLNKS [SIR4]
The protein stability index of the first is higher: 3.19 ± 0.079 for the first, 2.95 ± 0.047 for the second.

Going from ESVIEQIVKYARKGLTP [RPS13] to ETAERNIIQAKRDAKAA [RPL7A], the protein stability index falls from 2.76 ± 0.052 to 1.93 ± 0.16.

Compared with ETEFPPFREFLQVLIDQ [ECM29], ETISAIEHPMTSAIEVL [RPN1] is lower in protein stability index: 3.2 ± 0.095 for the first, 1.76 ± 0.071 for the second.

First: ETITTKRVPNPNFLGNC [SWP82]
Second: ETLEHNPVALEQKLVDL [BRR2]
The protein stability index of the first is lower: 2.18 ± 0.05 for the first, 2.43 ± 0.074 for the second.

Compared with ETLSIFTNVPLNLEQVT [YJL039C/NUP192], ETSSDGSKSDGSAATSG [RPN1] is higher in protein stability index: 2.33 ± 0.055 for the first, 3.62 ± 0.048 for the second.

ETTLGEMAEKIDFTLLN [PRP8] and ETVPDNVKTSVSQLYRI [RPO31] are within error of each other in protein stability index: 3.19 ± 0.098 for the first, 3.21 ± 0.078 for the second.

Going from EVFSRPEWMILTCLPVP [RPO21] to EVILVDPQHKAIRRDAR [RPL15A], the protein stability index rises from 1.51 ± 0.14 to 2.78 ± 0.28.

EVINKEIENATKDIFPL [RPS1A] and EVTFKNANIFSSVKCFG [FAS1] are within error of each other in protein stability index: 2.9 ± 0.13 for the first, 2.84 ± 0.063 for the second.

Compared with EWQDIIHQREQELQIKR [CSE2], EWYLSHLCSGILSSVNR [SRB8] is lower in protein stability index: 3.29 ± 0.26 for the first, 1.25 ± 0.095 for the second.

Going from EYALPKTYNKLHYCVSC [RPS26A] to EYDTPALFFDPSLNPIP [PRP8], the protein stability index rises from 1.34 ± 0.12 to 2.65 ± 0.048.

EYKLRSLTLSFIRHVAK [ECM29] and EYYVMMDFANLWVFQAF [SRB8] are within error of each other in protein stability index: 2.77 ± 0.049 for the first, 2.63 ± 0.093 for the second.

FAKEHNATVNLAMEAIL [YJR042W/NUP85] and FARLSRLLSLWEVFQMA [RPC82] are within error of each other in protein stability index: 2.71 ± 0.098 for the first, 2.86 ± 0.13 for the second.

FASIPVSNSISRLGEEN [SNU114] and FCPGEIVGKSNVLVTMP [YMR129W/POM152] are within error of each other in protein stability index: 1.81 ± 0.081 for the first, 1.82 ± 0.27 for the second.

Going from FDHNDKKLSINSAARNI [PRE7] to FDKVEVQVRSVMDPITS [DIS3], the protein stability index rises from 2.4 ± 0.055 to 3.21 ± 0.053.

Compared with FDLVRNIVKQNEGIDLD [SMC2], FDQAGKKVSRRNARATR [RPL13A] is lower in protein stability index: 3.24 ± 0.081 for the first, 1.92 ± 0.12 for the second.

First: FDSLRNFIVHSPMLKRI [GRR1]
Second: FEEDSDLALPPPPPPPP [PRP8]
The protein stability index of the first is lower: 2.8 ± 0.074 for the first, 3.27 ± 0.072 for the second.

Compared with FEIIFPPTDTNVEESVS [POP5], FEKKELQEKFLNQIATL [IRR1] is lower in protein stability index: 2.47 ± 0.071 for the first, 1.15 ± 0.1 for the second.

FELVSDLSYIEFLFESL [ECM29] and FESLPLKSAENSGKQQY [SWP82] are within error of each other in protein stability index: 2.97 ± 0.062 for the first, 3.01 ± 0.055 for the second.

Compared with FFDGSASSTPIPVLGKP [YOR098C/NUP1], FFKPLDYITEAVFKIVL [SNU114] is lower in protein stability index: 2.72 ± 0.036 for the first, 1.47 ± 0.073 for the second.

FFYLRISKKLQFSYLSS [PCI8] and FGKLLQAYQFLNTFGSK [ITC1] are within error of each other in protein stability index: 1.24 ± 0.11 for the first, 1.19 ± 0.12 for the second.

Going from FGNIQKVVNFWLLHNGF [RPO21] to FGNSLICEDPETAKKIT [SMC2], the protein stability index rises from 1.99 ± 0.19 to 2.62 ± 0.24.

Going from FGPIKVELPTKETVEIG [FAS1] to FGVPNSSKNETSKPVFS [YLR335W/NUP2], the protein stability index falls from 3.23 ± 0.067 to 2.55 ± 0.13.

First: FHKYRLKRNSWPKTRGV [RPL2A]
Second: FHNAVFNSFRRFKSQFL [QCR8]
The protein stability index of the first is higher: 2.83 ± 0.12 for the first, 1.6 ± 0.088 for the second.

FHSEISPDSTVNRSVVV [YAR002W/NUP60] and FICTTFRTDMLQVADKF [SMC3] are within error of each other in protein stability index: 1.76 ± 0.13 for the first, 1.6 ± 0.089 for the second.

FILELEHKTPELISFKE [YIL149C/MLP2] and FIPNKQLNCVIDRVNGI [RPN7] are within error of each other in protein stability index: 2.96 ± 0.1 for the first, 2.73 ± 0.18 for the second.

First: FIVSGTASDQLFGMCES [PUP3]
Second: FKGTDFVHSVKKFLRVR [SRB4]
The protein stability index of the first is lower: 2.63 ± 0.056 for the first, 2.83 ± 0.058 for the second.

First: FKKLNSKNMSKSPSLTA [YMR153W/NUP53]
Second: FKMNEIVPLHSPFLMGH [SEC65]
The protein stability index of the first is lower: 2.19 ± 0.067 for the first, 2.59 ± 0.082 for the second.

FKNMGNTCYLNATLQAL [UBP6] and FKQIKSADCELLGIDAT [RPO31] are within error of each other in protein stability index: 1.55 ± 0.12 for the first, 1.42 ± 0.16 for the second.

First: FKSPIDNSESHPFIPLL [RRP6]
Second: FKSVLPIVLLNTLRKCY [UBP6]
The protein stability index of the first is higher: 2.03 ± 0.075 for the first, 1.12 ± 0.16 for the second.

First: FLDSQRVWAEYATKRQE [PRP8]
Second: FLKEVLSDLSSPVQDWN [YML103C/NUP188]
The protein stability index of the first is lower: 1.92 ± 0.097 for the first, 2.76 ± 0.11 for the second.

Compared with FLKLANGGKFSKSNLIH [RGR1], FLMGIFNSVVNLSRYPK [MTR3] is lower in protein stability index: 2.87 ± 0.077 for the first, 2.49 ± 0.13 for the second.

First: FLNTPNNNINENELFND [SSN2]
Second: FLSLLNLATKGMVKLNE [REC8]
The protein stability index of the first is higher: 2.86 ± 0.054 for the first, 1.6 ± 0.078 for the second.

With FLVLYDVKTAEEASQLI [NUT1] the protein stability index was 2.78 ± 0.061.
